According to the supplement of paper PMC10065799, “High-throughput profiling of sequence recognition by tyrosine kinases and SH2 domains using bacterial peptide display” (eLife, 2023):

Legend:
[1] = target: FGFR1 (UniProt P11362); assay: phosphorylation enrichment, bacterial display (enrichment ratio); higher = better substrate or ligand; peptides without Tyr show the background
[2] = target: EPHB1 (UniProt P54762); assay: as above
[3] = target: EPHB2 (UniProt P29323); assay: as above
[4] = target: Fes (UniProt P07332); assay: as above
Sequence of Fes (P07332 whole entry, looked up): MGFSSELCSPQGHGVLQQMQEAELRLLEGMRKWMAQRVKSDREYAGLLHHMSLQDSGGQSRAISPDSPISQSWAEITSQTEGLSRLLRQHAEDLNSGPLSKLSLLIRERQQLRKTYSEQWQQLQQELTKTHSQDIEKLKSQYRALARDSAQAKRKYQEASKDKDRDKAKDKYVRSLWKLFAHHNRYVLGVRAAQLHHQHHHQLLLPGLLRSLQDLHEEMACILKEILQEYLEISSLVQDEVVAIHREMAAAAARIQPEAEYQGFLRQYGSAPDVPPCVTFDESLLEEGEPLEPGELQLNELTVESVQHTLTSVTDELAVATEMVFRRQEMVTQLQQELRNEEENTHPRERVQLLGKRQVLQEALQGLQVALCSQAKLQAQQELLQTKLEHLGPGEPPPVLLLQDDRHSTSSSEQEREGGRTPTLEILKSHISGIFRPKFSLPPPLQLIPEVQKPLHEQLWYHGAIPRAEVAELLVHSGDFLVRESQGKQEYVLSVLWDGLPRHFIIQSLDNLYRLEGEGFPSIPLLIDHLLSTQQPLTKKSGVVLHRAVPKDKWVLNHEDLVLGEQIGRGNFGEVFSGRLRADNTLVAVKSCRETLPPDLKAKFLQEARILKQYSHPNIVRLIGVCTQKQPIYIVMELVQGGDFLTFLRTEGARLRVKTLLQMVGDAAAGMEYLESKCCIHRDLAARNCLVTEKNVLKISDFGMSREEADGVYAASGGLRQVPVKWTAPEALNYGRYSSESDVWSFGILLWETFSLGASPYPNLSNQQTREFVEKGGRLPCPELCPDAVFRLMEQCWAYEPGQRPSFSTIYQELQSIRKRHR

[5] = test system: Fer (mouse); assay: as above
[6] = test system: c-Abl (mouse); assay: as above
[7] = target: Jak2 (UniProt O60674); assay: as above
Sequence of Jak2 (O60674 whole entry, looked up): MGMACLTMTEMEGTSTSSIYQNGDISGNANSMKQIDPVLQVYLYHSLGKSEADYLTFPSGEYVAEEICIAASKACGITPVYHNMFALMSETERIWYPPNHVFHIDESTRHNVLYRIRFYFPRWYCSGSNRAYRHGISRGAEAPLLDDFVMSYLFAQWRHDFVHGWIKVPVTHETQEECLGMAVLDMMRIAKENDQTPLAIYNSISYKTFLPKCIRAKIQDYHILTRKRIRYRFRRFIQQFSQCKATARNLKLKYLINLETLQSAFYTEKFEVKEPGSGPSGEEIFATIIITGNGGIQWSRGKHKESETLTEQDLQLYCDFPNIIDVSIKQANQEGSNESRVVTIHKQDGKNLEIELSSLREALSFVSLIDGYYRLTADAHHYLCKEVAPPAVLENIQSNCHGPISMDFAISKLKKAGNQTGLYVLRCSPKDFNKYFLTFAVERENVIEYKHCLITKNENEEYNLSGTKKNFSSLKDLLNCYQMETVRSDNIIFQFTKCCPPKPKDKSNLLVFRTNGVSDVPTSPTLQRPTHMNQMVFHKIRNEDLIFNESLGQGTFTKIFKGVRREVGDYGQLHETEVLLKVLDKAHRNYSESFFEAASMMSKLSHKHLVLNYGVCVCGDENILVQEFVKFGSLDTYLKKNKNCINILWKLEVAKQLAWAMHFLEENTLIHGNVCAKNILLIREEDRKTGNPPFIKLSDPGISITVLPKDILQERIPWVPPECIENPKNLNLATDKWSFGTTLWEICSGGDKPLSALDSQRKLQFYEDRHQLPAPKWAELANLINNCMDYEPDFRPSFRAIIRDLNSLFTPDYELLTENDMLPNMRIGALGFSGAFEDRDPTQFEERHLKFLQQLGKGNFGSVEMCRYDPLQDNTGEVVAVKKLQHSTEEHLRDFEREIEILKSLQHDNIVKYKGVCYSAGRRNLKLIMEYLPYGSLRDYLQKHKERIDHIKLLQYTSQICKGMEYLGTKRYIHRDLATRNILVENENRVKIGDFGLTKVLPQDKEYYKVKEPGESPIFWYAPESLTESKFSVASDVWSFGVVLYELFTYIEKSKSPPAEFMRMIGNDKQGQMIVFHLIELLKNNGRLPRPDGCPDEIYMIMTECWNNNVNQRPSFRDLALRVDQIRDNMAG

[8] = test system: c-Src; assay: as above
[9] = target: Hck (UniProt P08631); assay: as above
Sequence of Hck (P08631 whole entry, looked up): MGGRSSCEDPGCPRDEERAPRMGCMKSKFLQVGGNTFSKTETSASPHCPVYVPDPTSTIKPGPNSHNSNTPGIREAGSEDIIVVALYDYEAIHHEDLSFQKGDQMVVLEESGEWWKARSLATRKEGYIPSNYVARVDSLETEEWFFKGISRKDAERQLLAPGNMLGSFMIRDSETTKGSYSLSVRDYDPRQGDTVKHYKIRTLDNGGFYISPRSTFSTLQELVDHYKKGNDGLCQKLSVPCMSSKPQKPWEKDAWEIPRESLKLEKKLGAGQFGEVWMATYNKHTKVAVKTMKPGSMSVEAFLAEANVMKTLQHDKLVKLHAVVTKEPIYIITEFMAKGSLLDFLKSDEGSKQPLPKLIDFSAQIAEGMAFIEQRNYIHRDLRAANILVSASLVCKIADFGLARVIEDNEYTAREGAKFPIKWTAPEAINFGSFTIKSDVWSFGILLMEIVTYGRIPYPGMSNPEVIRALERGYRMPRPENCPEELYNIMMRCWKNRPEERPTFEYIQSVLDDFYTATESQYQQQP

[10] = target: MERTK (UniProt Q12866); assay: as above
Sequence of MERTK (Q12866 whole entry, looked up): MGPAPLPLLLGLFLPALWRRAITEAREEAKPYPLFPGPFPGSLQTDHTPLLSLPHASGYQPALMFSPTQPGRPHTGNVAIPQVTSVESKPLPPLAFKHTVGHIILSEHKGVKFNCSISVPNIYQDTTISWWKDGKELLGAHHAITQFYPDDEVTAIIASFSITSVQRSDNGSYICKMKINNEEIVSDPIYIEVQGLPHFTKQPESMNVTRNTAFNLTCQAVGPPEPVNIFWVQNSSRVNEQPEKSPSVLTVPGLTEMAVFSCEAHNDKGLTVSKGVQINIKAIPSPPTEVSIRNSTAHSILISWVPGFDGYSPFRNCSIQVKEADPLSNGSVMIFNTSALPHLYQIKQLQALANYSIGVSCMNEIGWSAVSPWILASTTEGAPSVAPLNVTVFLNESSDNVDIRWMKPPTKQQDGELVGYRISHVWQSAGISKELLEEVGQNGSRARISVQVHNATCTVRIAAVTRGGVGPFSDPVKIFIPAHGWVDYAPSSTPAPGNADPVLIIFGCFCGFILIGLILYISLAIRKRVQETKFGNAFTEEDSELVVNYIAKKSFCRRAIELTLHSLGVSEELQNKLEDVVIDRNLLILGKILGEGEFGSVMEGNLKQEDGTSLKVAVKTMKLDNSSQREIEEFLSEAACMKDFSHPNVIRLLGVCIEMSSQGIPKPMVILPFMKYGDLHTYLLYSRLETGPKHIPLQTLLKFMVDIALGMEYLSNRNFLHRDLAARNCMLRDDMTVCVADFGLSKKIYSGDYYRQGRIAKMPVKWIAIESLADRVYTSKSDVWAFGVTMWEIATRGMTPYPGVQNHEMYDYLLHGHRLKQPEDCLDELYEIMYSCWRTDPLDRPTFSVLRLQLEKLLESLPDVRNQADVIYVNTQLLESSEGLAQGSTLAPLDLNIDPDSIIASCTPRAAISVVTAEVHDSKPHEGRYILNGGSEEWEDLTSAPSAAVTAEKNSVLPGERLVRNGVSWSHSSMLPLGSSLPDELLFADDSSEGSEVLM

[11] = target: Fyn (UniProt P06241); assay: as above
Sequence of Fyn (P06241 whole entry, looked up): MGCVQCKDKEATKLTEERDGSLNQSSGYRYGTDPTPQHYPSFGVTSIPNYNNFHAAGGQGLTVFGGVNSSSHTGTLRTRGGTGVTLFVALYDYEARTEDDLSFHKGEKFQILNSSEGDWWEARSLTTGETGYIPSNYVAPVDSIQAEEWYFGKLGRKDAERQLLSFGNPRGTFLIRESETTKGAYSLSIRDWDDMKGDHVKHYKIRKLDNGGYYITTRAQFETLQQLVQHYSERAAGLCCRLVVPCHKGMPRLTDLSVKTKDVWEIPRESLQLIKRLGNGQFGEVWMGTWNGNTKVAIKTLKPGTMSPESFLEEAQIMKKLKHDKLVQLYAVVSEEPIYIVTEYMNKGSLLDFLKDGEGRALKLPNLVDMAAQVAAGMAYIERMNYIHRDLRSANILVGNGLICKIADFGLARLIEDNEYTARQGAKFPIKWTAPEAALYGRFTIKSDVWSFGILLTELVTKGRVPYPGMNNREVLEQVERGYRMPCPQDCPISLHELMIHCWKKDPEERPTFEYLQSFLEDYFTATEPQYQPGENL

[12] = target: FGFR3 (UniProt P22607); assay: as above
[13] = test system: AncSZ; assay: as above
[14] = target: Grb2 SH2 (UniProt P62993); assay: SH2 binding enrichment of the phosphorylated peptide, bacterial display (enrichment ratio); higher = better substrate or ligand; peptides without Tyr show the background
Sequence of Grb2 SH2 (P62993 whole entry, looked up): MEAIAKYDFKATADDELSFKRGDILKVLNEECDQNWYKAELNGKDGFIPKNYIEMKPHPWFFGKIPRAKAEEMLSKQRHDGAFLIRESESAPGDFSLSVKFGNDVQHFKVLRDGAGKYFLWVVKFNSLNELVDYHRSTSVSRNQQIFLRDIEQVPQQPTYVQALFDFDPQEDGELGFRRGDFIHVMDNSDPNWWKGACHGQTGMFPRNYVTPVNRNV

[15] = target: SHP2-C SH2; assay: as above
[16] = target: c-Src SH2; assay: as above
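Throughout, for SH2 binding enrichment of the phosphorylated peptide, bacterial display: peptide library displayed on the E. coli surface as eCPX fusions, selected cells deep-sequenced, score is each peptide's frequency after selection divided by its frequency in the input.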
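Throughout, for phosphorylation enrichment, bacterial display: 11-residue human phosphosite peptides and single-mutation variants displayed on the E. coli surface, counted by deep sequencing, each peptide's frequency after selection divided by its frequency in the unselected input library; frequency after pTyr selection over input frequency; kinase dosed for 20-30% of maximal phosphorylation in three min.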

Sequence of FGFR1 (P11362 whole entry, looked up): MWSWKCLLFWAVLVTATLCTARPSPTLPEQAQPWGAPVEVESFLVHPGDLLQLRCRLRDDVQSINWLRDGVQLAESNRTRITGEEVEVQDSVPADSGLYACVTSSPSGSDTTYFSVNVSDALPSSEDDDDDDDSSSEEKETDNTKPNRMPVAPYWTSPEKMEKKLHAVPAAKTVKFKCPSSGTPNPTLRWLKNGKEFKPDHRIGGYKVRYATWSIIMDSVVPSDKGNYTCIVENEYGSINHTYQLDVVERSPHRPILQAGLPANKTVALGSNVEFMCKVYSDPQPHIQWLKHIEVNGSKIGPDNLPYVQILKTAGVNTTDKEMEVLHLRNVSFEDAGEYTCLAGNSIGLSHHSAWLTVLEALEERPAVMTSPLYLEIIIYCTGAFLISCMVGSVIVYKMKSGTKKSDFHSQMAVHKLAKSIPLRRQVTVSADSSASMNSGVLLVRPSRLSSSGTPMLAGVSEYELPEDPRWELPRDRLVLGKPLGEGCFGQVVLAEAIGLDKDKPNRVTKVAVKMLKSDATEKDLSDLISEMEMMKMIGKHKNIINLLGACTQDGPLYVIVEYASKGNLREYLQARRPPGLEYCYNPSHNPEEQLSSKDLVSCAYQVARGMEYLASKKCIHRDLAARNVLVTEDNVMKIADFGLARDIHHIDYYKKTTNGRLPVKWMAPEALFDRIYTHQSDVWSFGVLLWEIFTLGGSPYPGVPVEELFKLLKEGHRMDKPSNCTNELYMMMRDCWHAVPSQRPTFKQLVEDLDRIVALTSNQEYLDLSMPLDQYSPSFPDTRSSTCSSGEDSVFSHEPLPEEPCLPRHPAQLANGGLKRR

Row | Sequence | phosphorylation enrichment [1] | phosphorylation enrichment [2] | phosphorylation enrichment [3] | phosphorylation enrichment [4] | phosphorylation enrichment [5] | phosphorylation enrichment [6] | phosphorylation enrichment [7] | phosphorylation enrichment [8] | phosphorylation enrichment [9] | phosphorylation enrichment [10] | phosphorylation enrichment [11] | phosphorylation enrichment [12] | phosphorylation enrichment [13] | SH2 binding enrichment [14] | SH2 binding enrichment [15] | SH2 binding enrichment [16]
1 | DAKAIYDFTDT [PDK1_Y136] | 0.604 | 1.43 | 1.85 | 1.15 | 5.43 | 1.03 | 0.994 | 5.87 | 3.18 | 5.88 | 7.96 | 0.665 | 1.3 | 0.896 | 0.6 | 0.604
2 | DCVRMYELVHR [GLE1_Y135_G130D] | 0.594 | 7.46 | 3.53 | 1.31 | 7.12 | 1.03 | 1.09 | 1.3 | 2.57 | 3.03 | 0.754 | 0.831 | 1.21 | 0.925 | 0.746 | 2.56
3 | DEDEEYEYMNR [ERBB3_Y1197] | 0.511 | 0.587 | 0.712 | 1.23 | 0.556 | 0.668 | 1.19 | 0.54 | 0.567 | 0.487 | 0.523 | 0.62 | 1.38 | 1.02 | 0.926 | 0.634
4 | DEEPPYRGPFC [SASH1_Y551] | 0.525 | 0.509 | 0.396 | 0.895 | 0.434 | 0.673 | 0.697 | 0.493 | 0.389 | 0.332 | 0.437 | 0.656 | 0.863 | 1.06 | 1.21 | 0.657
5 | DEIPLYLKGGV [COX7A2_Y44] | 0.5 | 0.566 | 0.508 | 0.962 | 0.485 | 0.593 | 0.854 | 0.422 | 0.522 | 0.391 | 0.492 | 0.656 | 0.79 | 0.83 | 0.716 | 0.454
6 | DERQPYVHMNG [IGF1R_Y1346_A1347V] | 0.592 | 0.436 | 0.5 | 0.81 | 0.446 | 0.503 | 0.786 | 0.484 | 0.471 | 0.428 | 0.438 | 0.627 | 0.696 | 0.729 | 0.704 | 0.705
7 | DFAIVYGTIIL [GPR179_Y460_G455D] | 0.565 | 0.732 | 0.777 | 1.51 | 0.727 | 0.846 | 1.16 | 0.483 | 0.665 | 0.402 | 0.692 | 1.1 | 1.52 | 0.591 | 0.584 | 0.343
8 | DFFDLYGGQKF [PTPN11_Y66_E69Q_YF] | 0.609 | 0.464 | 0.662 | 0.94 | 0.82 | 0.866 | 0.931 | 6.89 | 8.96 | 0.567 | 7.17 | 0.715 | 1.13 | 0.883 | 0.541 | 0.735
9 | DFKIIYIAPMR [SNRNP200_Y540] | 0.449 | 0.586 | 0.486 | 1.22 | 0.447 | 4.59 | 1.18 | 0.572 | 0.556 | 0.437 | 0.522 | 0.616 | 1.21 | 1.46 | 1.32 | 0.759
10 | DGLALYTGSAL [COL6A3_Y524_S521L] | 0.479 | 0.968 | 0.936 | 1.17 | 0.758 | 0.749 | 0.901 | 0.635 | 0.901 | 0.55 | 0.614 | 0.723 | 1.09 | 0.695 | 0.46 | 0.36
11 | DGQVNYEELVQ [CALM1_Y139_F142L] | 0.819 | 1.04 | 0.826 | 1.25 | 0.639 | 0.781 | 1.43 | 0.614 | 0.594 | 0.659 | 0.704 | 0.735 | 1.47 | 0.835 | 0.733 | 0.745
12 | DHAGMYGLGDR [MAPT_Y18_T17M] | 0.391 | 0.348 | 0.541 | 0.558 | 0.388 | 0.411 | 0.45 | 0.454 | 0.471 | 0.371 | 0.523 | 0.393 | 0.556 | 0.791 | 0.472 | 0.44
13 | DHCNQYEQQKM [CHD7_Y75_Y72C] | 0.424 | 0.545 | 0.714 | 0.823 | 0.499 | 0.661 | 0.699 | 0.541 | 0.499 | 0.443 | 0.534 | 0.682 | 0.842 | 0.971 | 0.879 | 0.825
14 | DISEPYKVYRI [IRF8_Y107] | 0.481 | 0.537 | 0.517 | 0.88 | 0.497 | 0.62 | 0.78 | 0.622 | 1.34 | 0.487 | 0.445 | 0.549 | 0.911 | 0.901 | 0.795 | 0.479
15 | DKATEYIQFVR [MAX_Y70_M74V_YF] | 0.519 | 0.503 | 0.53 | 0.705 | 0.465 | 0.574 | 0.55 | 0.556 | 0.636 | 0.41 | 0.442 | 0.551 | 0.74 | 0.789 | 0.73 | 0.459
16 | DLVHPYVHKIL [SF3B1_Y570_R568H] | 0.457 | 0.468 | 0.51 | 0.841 | 0.497 | 0.655 | 1.03 | 0.402 | 0.432 | 0.435 | 0.495 | 0.567 | 0.717 | 0.937 | 0.983 | 0.522
17 | DMDATYRPMYS [JUP_Y701] | 0.544 | 0.441 | 0.525 | 0.768 | 0.463 | 0.656 | 0.65 | 0.568 | 0.677 | 0.407 | 0.563 | 0.63 | 0.678 | 0.747 | 0.521 | 0.513

Row | Sequence | phosphorylation enrichment [1] | phosphorylation enrichment [2] | phosphorylation enrichment [3] | phosphorylation enrichment [4] | phosphorylation enrichment [5] | phosphorylation enrichment [6] | phosphorylation enrichment [7] | phosphorylation enrichment [8] | phosphorylation enrichment [9] | phosphorylation enrichment [10] | phosphorylation enrichment [11] | phosphorylation enrichment [12] | phosphorylation enrichment [13] | SH2 binding enrichment [14] | SH2 binding enrichment [15] | SH2 binding enrichment [16]
18 | DNQFAYLKAII [HNF4A_Y288_E285Q_YF] | 0.473 | 0.43 | 0.595 | 1.33 | 0.592 | 0.711 | 1.02 | 0.372 | 0.393 | 0.369 | 0.396 | 0.702 | 1.16 | 0.782 | 0.62 | 0.353
19 | DPEATYTTSGG [EPHA2_Y772] | 0.502 | 0.533 | 0.57 | 1.19 | 0.502 | 0.943 | 1.09 | 0.789 | 0.591 | 0.418 | 0.523 | 0.754 | 1.22 | 0.671 | 0.528 | 0.435
20 | DRIVNYSRASI [ATP7A_Y1459] | 0.423 | 0.432 | 0.4 | 0.589 | 0.41 | 0.585 | 0.48 | 0.37 | 0.405 | 0.383 | 0.374 | 0.426 | 0.538 | 0.768 | 0.88 | 0.498
21 | DRLASNLDKVR [KRT10_Y160_Y160N] | 0.491 | 0.326 | 0.307 | 0.547 | 0.339 | 0.481 | 0.488 | 0.391 | 0.33 | 0.394 | 0.382 | 0.348 | 0.556 | 0.883 | 0.917 | 0.565
22 | DRLASYPDKVR [KRT14_Y129_L130P] | 0.417 | 0.354 | 0.356 | 0.516 | 0.373 | 0.482 | 0.508 | 0.372 | 0.387 | 0.383 | 0.371 | 0.391 | 0.508 | 0.901 | 0.587 | 0.461
23 | DRLAVYIDRVS [LMNA_Y45_R50S] | 0.463 | 0.472 | 0.5 | 0.953 | 0.397 | 0.351 | 0.725 | 0.311 | 0.503 | 0.33 | 0.428 | 0.638 | 0.881 | 0.807 | 0.589 | 0.58
24 | DRPASYLEKVR [KRT13_Y118_L115P] | 0.3 | 0.307 | 0.247 | 0.605 | 0.276 | 0.441 | 0.43 | 0.362 | 0.284 | 0.342 | 0.299 | 0.404 | 0.438 | 1.08 | 1.03 | 0.579
25 | DSILVYQGKEQ [USH2A_Y1909] | 0.434 | 0.451 | 0.43 | 0.761 | 0.414 | 0.536 | 0.734 | 0.515 | 0.621 | 0.333 | 0.433 | 0.533 | 0.717 | 0.707 | 0.595 | 0.493
26 | DSKIRYLSADS [TTF1_Y476_E473K] | 0.457 | 0.465 | 0.607 | 0.663 | 0.368 | 0.508 | 0.611 | 0.527 | 0.434 | 0.435 | 0.389 | 0.546 | 0.503 | 1.11 | 0.682 | 0.426
27 | DVELLYPVKEK [EPHX1_Y283] | 0.394 | 0.445 | 0.513 | 1.05 | 0.432 | 0.648 | 0.971 | 0.452 | 0.422 | 0.36 | 0.404 | 0.558 | 0.968 | 0.73 | 0.487 | 0.42
28 | DVFLKYLNFAT [PDE6B_Y212] | 0.535 | 0.855 | 0.44 | 1.29 | 0.509 | 1.46 | 1.56 | 0.597 | 0.544 | 0.647 | 0.557 | 0.826 | 1.23 | 1.82 | 1.5 | 0.935
29 | DVSVVCSEVKT [FCRL4_Y493_Y493C] | 0.625 | 0.617 | 0.614 | 1.3 | 0.537 | 0.867 | 0.995 | 0.594 | 0.635 | 0.456 | 0.681 | 0.838 | 1.15 | 1.1 | 0.581 | 0.594
30 | DVVKDCAFVHM [RBM14_Y114_Y114C] | 0.573 | 0.582 | 0.535 | 0.993 | 0.498 | 0.645 | 0.71 | 0.384 | 0.486 | 0.401 | 0.488 | 0.623 | 0.899 | 0.971 | 0.811 | 0.523
31 | DYYDLYGGEKL [PTPN11_Y66_F71L] | 16.6 | 7.36 | 8.09 | 1.5 | 1.32 | 0.871 | 3.12 | 5.5 | 5.89 | 3.9 | 5.27 | 14.1 | 3.2 | 0.812 | 0.935 | 0.709
32 | EACRSYSHVVL [CHST6_Y168] | 0.533 | 0.454 | 0.498 | 0.711 | 0.824 | 0.881 | 0.602 | 0.538 | 0.548 | 0.463 | 0.611 | 0.701 | 0.808 | 0.958 | 2.2 | 2.24
33 | EASEQHLTKAS [NRCAM_Y739_Y739H] | 0.433 | 0.38 | 0.496 | 0.859 | 0.497 | 0.663 | 0.692 | 0.396 | 0.447 | 0.343 | 0.48 | 0.551 | 0.887 | 0.903 | 0.598 | 0.53
